Assay results reported in the supplement of paper PMC7877785.
± gives the uncertainty stated by the source.

Assay: self-splicing fitness, log relative to wild type (ln ratio); higher = more splicing; Tetrahymena group I intron in knt gene, E. coli kanamycin selection, DiMSum; sequences stand for … in CUCUCU…GGAGGGAAAAGUUAUCAGGCAUGCACCUGGUAGCUAGUCUUUAAACCAAUAGAUUGCAUCGGUUUAAAAGGCAAGACCGUCAAAUUGCGGGAAAGGGGUCAACAGCCGUUCAGUACCAAGUCUCAGGGGAAACUUUGAGAUGGCCUUGCAAAGGGUAUGGUAAUAAGCUGACGGACAUGGUCCUAACCACGCAGCCAAGUCCUAAGUCAACAGAUCUUCUGUUGAUAUGGAUGCAGUUCACAGACUAAAUGUCGGUCGGGGAAGAUGUAUUCUUCUCAUAAGAUAUAGUCGGACCUCUCCUUAAUGGGAGCUAGCGGAUGAAGUGAUGCAACACUGGAGCCGCUGGGAACUAAUUUGUAUGCGAAAGUAUAUUGAUUAGUUUUGGAGUACUCGUGGUCG
Procedure, shortened: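 DiMSum derived fitness as the error-weighted combination of fold changes across replicates, kanamycin versus no kanamycin, normalised to wild type. E. coli BL21(DE3) held the library, which randomised all eight P1ex-region intron nucleotides within the knt kanamycin-resistance gene on pET-22b(+). Six replicate transformations grew overnight at 37°C or 30°C on LB agar with or without 25 μg/mL kanamycin, also containing 100 μg/mL carbenicillin, 50 μM IPTG and 0.2% rhamnose, and pooled colonies were amplicon-sequenced on an Illumina HiSeq 2500.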

In the case of CUGCAGCAAUAUUACGGGAU, the “self-splicing fitness (ln)” value (30 °C) is reported as -2.46 ± 0.096 and the “self-splicing fitness (ln)” value (37 °C) is reported as -2.1 ± 0.15.

In the case of CUGCAGCAAUAUUACGGUAG, the “self-splicing fitness (ln)” value (30 °C) is reported as -3.65 ± 0.1 and the “self-splicing fitness (ln)” value (37 °C) is reported as -2.45 ± 0.11.

With CUGCAGCAAUAUUACGGUUA the “self-splicing fitness (ln)” value (30 °C) was -2.6 ± 0.16 and the “self-splicing fitness (ln)” value (37 °C) was -1.03 ± 0.12.

With CUGCAGCAAUAUUACGGUUG the “self-splicing fitness (ln)” value (30 °C) was -1.02 ± 0.13 and the “self-splicing fitness (ln)” value (37 °C) was -1.83 ± 0.19.

With CUGCAGCAAUAUUACGUCAC the “self-splicing fitness (ln)” value (30 °C) was -3.39 ± 0.31.

With CUGCAGCAAUAUUACGUGGA the “self-splicing fitness (ln)” value (30 °C) was -2.92 ± 0.16 and the “self-splicing fitness (ln)” value (37 °C) was -3.04 ± 0.2.

With CUGCAGCAAUAUUACGUGUC the “self-splicing fitness (ln)” value (30 °C) was -4.46 ± 0.28 and the “self-splicing fitness (ln)” value (37 °C) was -2.79 ± 0.29.

With CUGCAGCAAUAUUACGUUAU the “self-splicing fitness (ln)” value (30 °C) was -3.94 ± 0.17 and the “self-splicing fitness (ln)” value (37 °C) was -3.07 ± 0.3.

With CUGCAGCAAUAUUACGUUCG the “self-splicing fitness (ln)” value (30 °C) was -0.733 ± 0.074 and the “self-splicing fitness (ln)” value (37 °C) was -0.62 ± 0.095.

With CUGGAGCAAUAUUACGCACG the “self-splicing fitness (ln)” value (30 °C) was -0.0736 ± 0.32 and the “self-splicing fitness (ln)” value (37 °C) was -1.08 ± 0.29.

For CUGGAGCAAUAUUACGCAUC, the “self-splicing fitness (ln)” value (37 °C) was -0.757 ± 0.42.

With CUGGAGCAAUAUUACGGACC the “self-splicing fitness (ln)” value (30 °C) was -3.79 ± 0.24 and the “self-splicing fitness (ln)” value (37 °C) was -2.04 ± 0.34.

For CUGGAGCAAUAUUACGGAUG, the “self-splicing fitness (ln)” value (30 °C) was -1.12 ± 0.16 and the “self-splicing fitness (ln)” value (37 °C) was -0.927 ± 0.14.

With CUGGAGCAAUAUUACGGGAC the “self-splicing fitness (ln)” value (30 °C) was 0.251 ± 0.35 and the “self-splicing fitness (ln)” value (37 °C) was -1.08 ± 0.41.

In the case of CUGGAGCAAUAUUACGGGCU, the “self-splicing fitness (ln)” value (30 °C) is reported as -3.05 ± 0.37 and the “self-splicing fitness (ln)” value (37 °C) is reported as -2.46 ± 0.49.

In the case of CUGGAGCAAUAUUACGGGGA, the “self-splicing fitness (ln)” value (30 °C) is reported as -3.21 ± 0.28 and the “self-splicing fitness (ln)” value (37 °C) is reported as -2.39 ± 0.37.

For CUGGAGCAAUAUUACGGGUC, the “self-splicing fitness (ln)” value (30 °C) was -1.97 ± 0.16 and the “self-splicing fitness (ln)” value (37 °C) was -2.26 ± 0.34.

In the case of CUGGAGCAAUAUUACGGUAG, the “self-splicing fitness (ln)” value (30 °C) is reported as -2.51 ± 0.22 and the “self-splicing fitness (ln)” value (37 °C) is reported as -0.514 ± 0.16.

For CUGGAGCAAUAUUACGGUUA, the “self-splicing fitness (ln)” value (30 °C) was -1.79 ± 0.26 and the “self-splicing fitness (ln)” value (37 °C) was -2.31 ± 0.26.

In the case of CUGGAGCAAUAUUACGGUUG, the “self-splicing fitness (ln)” value (30 °C) is reported as -1.87 ± 0.081 and the “self-splicing fitness (ln)” value (37 °C) is reported as -1.11 ± 0.095.

In the case of CUGGAGCAAUAUUACGUAUU, the “self-splicing fitness (ln)” value (30 °C) is reported as -3.84 ± 0.31 and the “self-splicing fitness (ln)” value (37 °C) is reported as -2.09 ± 0.27.

For CUGGAGCAAUAUUACGUCCC, the “self-splicing fitness (ln)” value (37 °C) was -1.4 ± 0.46.

In the case of CUGGAGCAAUAUUACGUCCU, the “self-splicing fitness (ln)” value (30 °C) is reported as -3.17 ± 0.16 and the “self-splicing fitness (ln)” value (37 °C) is reported as -2.56 ± 0.22.

In the case of CUGGAGCAAUAUUACGUUAU, the “self-splicing fitness (ln)” value (30 °C) is reported as -4.35 ± 0.31 and the “self-splicing fitness (ln)” value (37 °C) is reported as -2.82 ± 0.26.

In the case of CUGGAGCAAUAUUACGUUGC, the “self-splicing fitness (ln)” value (30 °C) is reported as -3.09 ± 0.33.

For CUGGAGCAAUAUUACGUUGU, the “self-splicing fitness (ln)” value (30 °C) was -2.64 ± 0.29 and the “self-splicing fitness (ln)” value (37 °C) was -3.72 ± 0.33.

With CUGUAGCAAUAUUACGAACA the “self-splicing fitness (ln)” value (30 °C) was -2 ± 0.41.

For CUGUAGCAAUAUUACGAUAC, the “self-splicing fitness (ln)” value (30 °C) was -2.43 ± 0.29.

With CUGUAGCAAUAUUACGAUAG the “self-splicing fitness (ln)” value (30 °C) was -1.9 ± 0.23 and the “self-splicing fitness (ln)” value (37 °C) was -1.17 ± 0.15.

In the case of CUGUAGCAAUAUUACGAUAU, the “self-splicing fitness (ln)” value (30 °C) is reported as -4.06 ± 0.32 and the “self-splicing fitness (ln)” value (37 °C) is reported as -2.75 ± 0.32.

For CUGUAGCAAUAUUACGAUCU, the “self-splicing fitness (ln)” value (30 °C) was -3.56 ± 0.26 and the “self-splicing fitness (ln)” value (37 °C) was -2.05 ± 0.29.

With CUGUAGCAAUAUUACGCCAC the “self-splicing fitness (ln)” value (30 °C) was -2.54 ± 0.25 and the “self-splicing fitness (ln)” value (37 °C) was -2.09 ± 0.47.

With CUGUAGCAAUAUUACGCCAU the “self-splicing fitness (ln)” value (30 °C) was -3.3 ± 0.34.

In the case of CUGUAGCAAUAUUACGCGGG, the “self-splicing fitness (ln)” value (30 °C) is reported as -3.04 ± 0.24 and the “self-splicing fitness (ln)” value (37 °C) is reported as -2.07 ± 0.31.

For CUGUAGCAAUAUUACGCUAG, the “self-splicing fitness (ln)” value (30 °C) was -3.71 ± 0.21 and the “self-splicing fitness (ln)” value (37 °C) was -2.36 ± 0.23.

With CUGUAGCAAUAUUACGGAAC the “self-splicing fitness (ln)” value (37 °C) was -2.87 ± 0.34.

For CUGUAGCAAUAUUACGGAAG, the “self-splicing fitness (ln)” value (30 °C) was -3.31 ± 0.16 and the “self-splicing fitness (ln)” value (37 °C) was -2.22 ± 0.19.

In the case of CUGUAGCAAUAUUACGGAUU, the “self-splicing fitness (ln)” value (30 °C) is reported as -3.48 ± 0.28 and the “self-splicing fitness (ln)” value (37 °C) is reported as -2.7 ± 0.33.

In the case of CUGUAGCAAUAUUACGGCUG, the “self-splicing fitness (ln)” value (30 °C) is reported as -0.442 ± 0.099 and the “self-splicing fitness (ln)” value (37 °C) is reported as -0.0988 ± 0.13.

In the case of CUGUAGCAAUAUUACGGCUU, the “self-splicing fitness (ln)” value (30 °C) is reported as -3.72 ± 0.25 and the “self-splicing fitness (ln)” value (37 °C) is reported as -2.86 ± 0.3.

In the case of CUGUAGCAAUAUUACGGUGU, the “self-splicing fitness (ln)” value (30 °C) is reported as -3.41 ± 0.12 and the “self-splicing fitness (ln)” value (37 °C) is reported as -2.88 ± 0.14.

For CUGUAGCAAUAUUACGGUUA, the “self-splicing fitness (ln)” value (30 °C) was -2.17 ± 0.24 and the “self-splicing fitness (ln)” value (37 °C) was -2.58 ± 0.36.

With CUGUAGCAAUAUUACGUAAA the “self-splicing fitness (ln)” value (30 °C) was -3.52 ± 0.3 and the “self-splicing fitness (ln)” value (37 °C) was -1.6 ± 0.23.

With CUGUAGCAAUAUUACGUAGA the “self-splicing fitness (ln)” value (30 °C) was -2.66 ± 0.12 and the “self-splicing fitness (ln)” value (37 °C) was -2.51 ± 0.16.

With CUGUAGCAAUAUUACGUAGU the “self-splicing fitness (ln)” value (30 °C) was -4.78 ± 0.36 and the “self-splicing fitness (ln)” value (37 °C) was -2.65 ± 0.35.

In the case of CUGUAGCAAUAUUACGUCAG, the “self-splicing fitness (ln)” value (30 °C) is reported as -3.53 ± 0.23 and the “self-splicing fitness (ln)” value (37 °C) is reported as -2.88 ± 0.34.

With CUGUAGCAAUAUUACGUCCA the “self-splicing fitness (ln)” value (37 °C) was -2.89 ± 0.48.

With CUGUAGCAAUAUUACGUCUG the “self-splicing fitness (ln)” value (30 °C) was -0.298 ± 0.088 and the “self-splicing fitness (ln)” value (37 °C) was 0.128 ± 0.1.

In the case of CUGUAGCAAUAUUACGUGAU, the “self-splicing fitness (ln)” value (30 °C) is reported as -1.56 ± 0.085 and the “self-splicing fitness (ln)” value (37 °C) is reported as -0.44 ± 0.11.

With CUGUAGCAAUAUUACGUGCG the “self-splicing fitness (ln)” value (30 °C) was -1.38 ± 0.08 and the “self-splicing fitness (ln)” value (37 °C) was -0.547 ± 0.092.

In the case of CUUAAGCAAUAUUACGAAUA, the “self-splicing fitness (ln)” value (30 °C) is reported as -2.42 ± 0.27 and the “self-splicing fitness (ln)” value (37 °C) is reported as -3.17 ± 0.43.
